Assays:
[1] = biological target: whole LFA-1 in which the α subunit contains an I-domain in the low affinity locked closed state, on cells (LA cells) (human) (UniProt P05107); assay: phage ELISA, LA form of LFA-1, with Mg2+
[2] = biological target: whole LFA-1 in which the α subunit contains an I-domain in the low affinity locked closed state, on cells (LA cells) (human) (UniProt P05107); assay: phage ELISA, LA form of LFA-1, without Mg2+
[3] = biological target: whole LFA-1 in which the α subunit contains an I-domain in the high affinity locked open state, on cells (HA cells) (human) (UniProt P05107); assay: inhibition of ICAM binding to HA cells, Guava analysis; first experiment
[4] = biological target: whole LFA-1 in which the α subunit contains an I-domain in the high affinity locked open state, on cells (HA cells) (human) (UniProt P05107); assay: inhibition of ICAM binding to HA cells, Guava analysis; third experiment
[5] = biological target: whole LFA-1 in which the α subunit contains an I-domain in the high affinity locked open state, on cells (HA cells) (human) (UniProt P05107); assay: inhibition of ICAM binding to HA cells, Guava analysis; second experiment
[6] = biological target: whole LFA-1 in which the α subunit contains an I-domain in the high affinity locked open state, on cells (HA cells) (human) (UniProt P05107); assay: inhibition of ICAM binding to HA cells, Guava analysis; fourth experiment
[7] = biological target: human wild-type LFA-1 on cells (human) (UniProt P20701); assay: inhibition of ICAM binding to human PBMCs; average of four experiments
Chain of human wild-type LFA-1 on cells (human) (P20701 other isoform, or with tags, fused parts or gaps limits assumed, chain 1 of 2): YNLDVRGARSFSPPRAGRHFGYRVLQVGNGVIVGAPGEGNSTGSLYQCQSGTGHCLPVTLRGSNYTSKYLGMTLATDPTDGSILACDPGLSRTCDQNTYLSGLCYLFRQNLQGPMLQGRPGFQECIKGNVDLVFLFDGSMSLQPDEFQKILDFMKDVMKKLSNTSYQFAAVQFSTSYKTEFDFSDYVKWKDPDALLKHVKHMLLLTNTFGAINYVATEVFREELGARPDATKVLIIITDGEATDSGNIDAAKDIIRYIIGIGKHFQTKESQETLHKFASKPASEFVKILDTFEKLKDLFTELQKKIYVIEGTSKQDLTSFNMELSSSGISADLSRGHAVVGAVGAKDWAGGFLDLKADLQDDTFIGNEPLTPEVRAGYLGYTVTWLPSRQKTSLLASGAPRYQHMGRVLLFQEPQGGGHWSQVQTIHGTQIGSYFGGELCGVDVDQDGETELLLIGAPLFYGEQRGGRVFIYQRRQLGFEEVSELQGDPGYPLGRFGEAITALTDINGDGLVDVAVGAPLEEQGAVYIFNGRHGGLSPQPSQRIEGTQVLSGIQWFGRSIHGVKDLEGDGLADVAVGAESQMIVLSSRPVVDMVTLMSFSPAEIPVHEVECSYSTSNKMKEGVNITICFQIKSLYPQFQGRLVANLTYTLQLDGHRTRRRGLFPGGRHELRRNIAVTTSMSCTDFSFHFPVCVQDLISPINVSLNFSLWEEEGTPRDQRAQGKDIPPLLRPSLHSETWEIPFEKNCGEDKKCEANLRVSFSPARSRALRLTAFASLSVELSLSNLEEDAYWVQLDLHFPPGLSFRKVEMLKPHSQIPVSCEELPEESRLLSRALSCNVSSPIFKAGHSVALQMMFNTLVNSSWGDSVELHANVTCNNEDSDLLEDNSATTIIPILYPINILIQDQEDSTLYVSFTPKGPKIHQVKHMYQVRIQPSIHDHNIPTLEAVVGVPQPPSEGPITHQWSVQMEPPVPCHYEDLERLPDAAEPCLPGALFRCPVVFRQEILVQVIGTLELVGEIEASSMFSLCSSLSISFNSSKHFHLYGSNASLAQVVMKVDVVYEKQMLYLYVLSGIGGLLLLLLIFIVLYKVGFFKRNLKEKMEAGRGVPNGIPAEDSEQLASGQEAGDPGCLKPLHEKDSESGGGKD
Chain of human wild-type LFA-1 on cells (human) (chain, as listed by the source limits assumed, chain 2 of 2): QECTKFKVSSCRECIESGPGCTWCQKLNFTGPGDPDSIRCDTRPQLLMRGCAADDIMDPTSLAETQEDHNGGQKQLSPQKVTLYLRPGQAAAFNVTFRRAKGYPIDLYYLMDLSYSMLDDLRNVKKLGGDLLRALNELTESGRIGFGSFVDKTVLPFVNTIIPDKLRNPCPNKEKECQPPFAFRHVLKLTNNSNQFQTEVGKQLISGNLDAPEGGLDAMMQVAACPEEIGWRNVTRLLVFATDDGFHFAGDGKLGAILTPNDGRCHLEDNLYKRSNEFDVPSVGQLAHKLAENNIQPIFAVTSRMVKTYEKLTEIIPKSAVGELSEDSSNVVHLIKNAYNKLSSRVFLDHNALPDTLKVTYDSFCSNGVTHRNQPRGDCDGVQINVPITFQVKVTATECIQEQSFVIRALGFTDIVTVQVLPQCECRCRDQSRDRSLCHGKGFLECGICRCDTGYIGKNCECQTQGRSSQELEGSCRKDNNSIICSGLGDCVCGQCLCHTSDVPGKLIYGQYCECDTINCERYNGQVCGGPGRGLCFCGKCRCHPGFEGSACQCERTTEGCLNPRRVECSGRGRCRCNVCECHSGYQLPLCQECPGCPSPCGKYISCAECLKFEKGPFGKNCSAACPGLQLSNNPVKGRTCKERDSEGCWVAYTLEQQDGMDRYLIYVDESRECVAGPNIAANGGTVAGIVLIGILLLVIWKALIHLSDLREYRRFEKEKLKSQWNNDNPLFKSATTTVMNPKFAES

| Substance | ELISA signal (arbitrary units) [1] | ELISA signal (arbitrary units) [2] | IC50 [3] [pM] | IC50 [4] [pM] | IC50 [5] [pM] | IC50 [6] [pM] | IC50 [7] [pM] |
| --- | --- | --- | --- | --- | --- | --- | --- |
| Control #2 (another protein that binds to a different target) | 0.14 | 0.07 | – | – | – | – | – |
| MHM24 IgG (antibody) | – | – | 240 | 590 | 1800 | 2400 | 330 |
| Control #1 (a phage that binds to a different target) | 0.13 | 0.07 | – | – | – | – | – |

Reference: patent publication US20080069777A1
